Numbering of substitutions follows the chain as printed.
B1: follistatin-like 3 (FSTL3) (natural protein)
chain: MGSGNPAPGGVCWLQQGQEATCSLVLQTDVTRAECCASGNIDTAWSNLTHPGNKINLLGFLGLVHCLPCKDSCDGVECGPGKACRMLGGRPRCECAPDCSGLPARLQVCGSDGATYRDECELRAARCRGHPDLSVMYRGRCRKSCEHVVCPRPQSCVVDQTGSAHCVVCRAAPCPVPSSPGQELCGNNNVTYISSCHMRQATCFLGRSIGVRHAGSCAGTPEEPPGGESAEEEENFV
B2: growth/differentiation factor-associated serum protein 1 (GASP1) (natural protein)
chain: LPPIRYSHAGICPNDMNPNLWVDAQSTCRRECETDQECETYEKCCPNVCGTKSCVAARYMDVKGKKGPVGMPKEATCDHFMCLQQGSECDIWDGQPVCKCKDRCEKEPSFTCASDGLTYYNRCYMDAEACSKGITLAVVTCRYHFTWPNTSPPPPETTMHPTTASPETPELDMAAPALLNNPVHQSVTMGETVSFLCDVVGRPRPEITWEKQLEDRENVVMRPNHVRGNVVVTNIAQLVIYNAQLQDAGIYTCTARNVAGVLRADFPLSVVRGHQAAATSESSPNGTAFPAAECLKPPDSEDCGEEQTRWHFDAQANNCLTFTFGHCHRNLNHFETYEACMLACMSGPLAACSLPALQGPCKAYAPRWAYNSQTGQCQSFVYGGCEGNGNNFESREACEESCPFPRGNQRCRACKPRQKLVTSFCRSDFVILGRVSELTEEPDSGRALVTVDEVLKDEKMGLKFLGQEPLEVTLLHVDWACPCPNVTVSEMPLIIMGEVDGGMAMLRPDSFVGASSARRVRKLREVMHKKTCDVLKEFLGLH
B3: GASP2 (natural protein)
chain: AGLLPGLGSHPGVCPNQLSPNLWVDAQSTCERECSRDQDCAAAEKCCINVCGLHSCVAARFPGSPAAPTTAASCEGFVCPQQGSDCDIWDGQPVCRCRDRCEKEPSFTCASDGLTYYNRCYMDAEACLRGLHLHIVPCKHVLSWPPSSPGPPETTARPTPGAAPVPPALYSSPSPQAVQVGGTASLHCDVSGRPPPAVTWEKQSHQRENLIMRPDQMYGNVVVTSIGQLVLYNARPEDAGLYTCTARNAAGLLRADFPLSVVQREPARDAAPSIPAPAECLPDVQACTGPTSPHLVLWHYDPQRGGCMTFPARGCDGAARGFETYEACQQACARGPGDACVLPAVQGPCRGWEPRWAYSPLLQQCHPFVYGGCEGNGNNFHSRESCEDACPVPRTPPCRACRLRSKLALSLCRSDFAIVGRLTEVLEEPEAAGGIARVALEDVLKDDKMGLKFLGTKYLEVTLSGMDWACPCPNMTAGDGPLVIMGEVRDGVAVLDAGSYVRAASEKRVKKILELLEKQACELLNRFQD
B4: follistatin 288 (FS288) (natural protein, UniProt P19883-2 30-317, looked up)
chain: GNCWLRQAKNGRCQVLYKTELSKEECCSTGRLSTSWTEEDVNDNTLFKWMIFNGGAPNCIPCKETCENVDCGPGKKCRMNKKNKPRCVCAPDCSNITWKGPVCGLDGKTYRNECALLKARCKEQPELEVQYQGRCKKTCRDVFCPGSSTCVVDQTNNAYCVTCNRICPEPASSEQYLCGNDGVTYSSACHLRKATCLLGRSIGLAYEGKCIKAKSCEDIQCTGGKKCLWDFKVGRGRCSLCDELCPDSKSDEPVCASDNATYASECAMKEAACSSGVLLEVKHSGSCN
B5: ActRIIB extracellular domain (ActRIIB-ECD) (receptor, UniProt P38445 19-137, looked up)
chain: SGRGEAETRECIYYNANWELERTNQSGLERCEGEQDKRLHCYASWRNSSGTIELVKKGCWLDDFNCYDRQECVATEENPQVYFCCCEGNFCNERFTHLPEPGGPEVTYEPPPTAPTLLT
B6: Fc-ActRIIB-ECD (Fc fusion, UniProt Q13705 19-137, looked up)
chain: B5 chain with P101A

What was measured:
[1] = molecular target: T1, mature growth/differentiation factor 11 (GDF11) (human) (UniProt O95390)
T1 sequence: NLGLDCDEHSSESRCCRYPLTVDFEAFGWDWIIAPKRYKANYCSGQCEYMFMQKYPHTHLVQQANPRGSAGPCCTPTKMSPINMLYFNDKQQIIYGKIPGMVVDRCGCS

[2] = molecular target: T2, mature growth/differentiation factor 8 (GDF8) (human) (UniProt O14793)
T2 sequence: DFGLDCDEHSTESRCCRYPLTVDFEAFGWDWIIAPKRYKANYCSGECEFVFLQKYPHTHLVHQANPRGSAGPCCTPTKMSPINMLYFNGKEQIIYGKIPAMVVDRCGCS

[3] = molecular target: T3, mature growth/differentiation factor 11 (GDF11) (human, UniProt O95390 299-407); test: cell-based or functional assay
T3 sequence (looked up): T1 sequence

[4] = molecular target: T4, mature growth/differentiation factor 8 (GDF8) (human, UniProt O14793 267-375); test: cell-based or functional assay
T4 sequence (looked up): T2 sequence

[5] = molecular target: T3, mature growth/differentiation factor 11 …; test: cell-based or functional assay; remark: listed apart in the source
[6] = molecular target: T3, mature growth/differentiation factor 11 …; test: cell-based or functional assay; remark: listed apart in the source
[7] = molecular target: T4, mature growth/differentiation factor 8 …; test: cell-based or functional assay; remark: listed apart in the source

IC50 of inhibition of 0.62 nM GDF11, (CAGA)12 luciferase reporter in HEK293 cells [1] [nM] | IC50 of inhibition of 0.62 nM GDF8, (CAGA)12 luciferase reporter in HEK293 cells [2] [nM] | IC50 of inhibition of 0.62 nM GDF11 by the soluble receptor, (CAGA)12 luciferase reporter in HEK293 cells [6] [nM] | IC50 of inhibition of 0.62 nM GDF8 by the soluble receptor, (CAGA)12 luciferase reporter in HEK293 cells [7] [nM] | further results | Binder
4 | 1.2 |  |  |  | B1
0.3 | 0.2 |  |  |  | B2
18.3 | 4.1 |  |  |  | B3
 |  |  |  | IC50 of inhibition of 0.62 nM GDF11, (CAGA)12 luciferase reporter in HEK293 cells [3]: 0.3 nM; IC50 of inhibition of 0.62 nM GDF8, (CAGA)12 luciferase reporter in HEK293 cells [4]: 0.2 nM | B4
 |  | 13 | 12.4 | IC50 of inhibition of 0.62 nM GDF11 by the soluble receptor, (CAGA)12 luciferase reporter in HEK293 cells (value of the text) [5]: 14 nM | B5
 |  | 10.3 | 3 |  | B6

— paper PMC5336696, “Structural basis for potency differences between GDF8 and GDF11” (BMC Biology, 2017)
